Assay results: publication PMC13544220, “Glycemic and bodyweight effects of GIPR coding variation reflect differences in surface expression and intrinsic functional impairment” (Science Advances, 2026)
Where a chain is given by its changes, count along the chain named.

B1: p.Arg131Ser (protein, UniProt P48546 22-466, looked up, variant R131S)
Gastric inhibitory …: RAETGSKGQTAGELYQRWERYRRECQETLAAAEPPSGLACNGSFDMYVCWDYAAPNATARASCPWYLPWHHHVAAGFVLRQCGSDGQWGLWRDHTQCENPEKNEAFLDQSLILERLQVMYTVGYSLSLATLLLALLILSLFRRLHCTRNYIHINLFTSFMLRAAAILSRDRLLPRPGPYLGDQALALWNQALAACRTAQIVTQYCVGANYTWLLVEGVYLHSLLVLVGGSEEGHFRYYLLLGWGAPALFVIPWVIVRYLYENTQCWERNEVKAIWWIIRTPILMTILINFLIFIRILGILLSKLRTRQMRCRDYRLRLARSTLTLVPLLGVHEVVFAPVTEEQARGALRFAKLGFEIFLSSFQGFLVSVLYCFINKEVQSEIRRGWHHCRLRRSLGEEQRQLPERAFRALPSGSGPGEVPTSRGLSSGTLPGPGNEASRELESYC
B2: p.Ser415Ile (protein, UniProt P48546 22-466, looked up, variant S415I)
Gastric inhibitory …: B1 Gastric inhibitory … with S110R, S394I
B3: p.Ala207Val (protein, UniProt P48546 22-466, looked up, variant A207V)
Gastric inhibitory …: B1 Gastric inhibitory … with S110R, A186V
B4: p.Arg136Trp (protein, UniProt P48546 22-466, looked up, variant R136W)
Gastric inhibitory …: B1 Gastric inhibitory … with S110R, R115W
B5: p.Arg190Gln (protein, UniProt P48546 22-466, looked up, variant R190Q)
Gastric inhibitory …: B1 Gastric inhibitory … with S110R, R169Q
B6: p.Glu463Gln (protein, UniProt P48546 22-466, looked up, variant E463Q)
Gastric inhibitory …: B1 Gastric inhibitory … with S110R, E442Q
B7: p.Ser447Thr (protein, UniProt P48546 22-466, looked up, variant S447T)
Gastric inhibitory …: B1 Gastric inhibitory … with S110R, S426T
B8: p.Arg183Gln (protein, UniProt P48546 22-466, looked up, variant R183Q)
Gastric inhibitory …: B1 Gastric inhibitory … with S110R, R162Q
B9: p.Leu262Val (protein, UniProt P48546 22-466, looked up, variant L262V)
Gastric inhibitory …: B1 Gastric inhibitory … with S110R, L241V
B10: p.Glu354Gln (protein, UniProt P48546 22-466, looked up, variant E354Q)
Gastric inhibitory …: B1 Gastric inhibitory … with S110R, E333Q
B11: p.Thr116Arg (protein, UniProt P48546 22-466, looked up, variant T116R)
Gastric inhibitory …: B1 Gastric inhibitory … with T95R, S110R
B12: p.Leu100Phe (protein, UniProt P48546 22-466, looked up, variant L100F)
Gastric inhibitory …: B1 Gastric inhibitory … with L79F, S110R
B13: p.Arg300Trp (protein, UniProt P48546 22-466, looked up, variant R300W)
Gastric inhibitory …: B1 Gastric inhibitory … with S110R, R279W
B14: p.Ile378Met (protein, UniProt P48546 22-466, looked up, variant I378M)
Gastric inhibitory …: B1 Gastric inhibitory … with S110R, I357M
B15: p.Arg101His (protein, UniProt P48546 22-466, looked up, variant R101H)
Gastric inhibitory …: B1 Gastric inhibitory … with R80H, S110R
B16: p.Ser64Ala (protein, UniProt P48546 22-466, looked up, variant S64A)
Gastric inhibitory …: B1 Gastric inhibitory … with S43A, S110R
B17: p.Arg341Pro (protein, UniProt P48546 22-466, looked up, variant R341P)
Gastric inhibitory …: B1 Gastric inhibitory … with S110R, R320P
B18: p.Arg336Pro (protein, UniProt P48546 22-466, looked up, variant R336P)
Gastric inhibitory …: B1 Gastric inhibitory … with S110R, R315P
B19: p.Asp66Gly (protein, UniProt P48546 22-466, looked up, variant D66G)
Gastric inhibitory …: B1 Gastric inhibitory … with D45G, S110R
B20: p.Ile403Val (protein, UniProt P48546 22-466, looked up, variant I403V)
Gastric inhibitory …: B1 Gastric inhibitory … with S110R, I382V
B21: p.Glu288Gly (protein, UniProt P48546 22-466, looked up, variant E288G)
Gastric inhibitory …: B1 Gastric inhibitory … with S110R, E267G
B22: p.Leu262His (protein, UniProt P48546 22-466, looked up, variant L262H)
Gastric inhibitory …: B1 Gastric inhibitory … with S110R, L241H
B23: p.Arg404His (protein, UniProt P48546 22-466, looked up, variant R404H)
Gastric inhibitory …: B1 Gastric inhibitory … with S110R, R383H
B24: p.Arg217Leu (protein, UniProt P48546 22-466, looked up, variant R217L)
Gastric inhibitory …: B1 Gastric inhibitory … with S110R, R196L
B25: p.Gly438Ser (protein, UniProt P48546 22-466, looked up, variant G438S)
Gastric inhibitory …: B1 Gastric inhibitory … with S110R, G417S
B26: p.Ala268Val (protein, UniProt P48546 22-466, looked up, variant A268V)
Gastric inhibitory …: B1 Gastric inhibitory … with S110R, A247V
B27: p.Glu252Asp (protein, UniProt P48546 22-466, looked up, variant E252D)
Gastric inhibitory …: B1 Gastric inhibitory … with S110R, E231D

Tested on: wild-type and variant SNAP-GIPR
Assay: Surface SNAP-GIPR expression (SNAP-tag labelling) in AD293 cells
Format: cell-based, human
Settings: level of surface expression, based on in vitro functional data in AD293 cells; summary classification
Procedure: Twenty-four hours before the experiment, AD293 or INS-1 cells were reverse transfected with GIPR variant or wild-type plasmids using Lipofectamine 2000 in 96-well, clear-bottom, black microplates precoated with poly-D-lysine. All variants were tested in parallel on each occasion to control for transfection efficiency differences between experiments. Cells were then labeled using the cell-impermeant probe SNAP-Surface Alexa Fluor 647 (500 nM, New England Biolabs, USA) for 10 min at room temperature to label only surface GIPR. […] Several fields of view (FOVs) were acquired within each well using a 20X, 0.75–numerical aperture (NA) air objective. Surface GIPR fluorescence was quantified after flat-field correction using BaSiC ([72]) and segmenting using Phantast ([73]), which generates a mask based on the phase contrast images to demarcate cell versus noncell. Wide-field imaging of the surface-specific labeling achieved by SNAP-Surface probes means that surface expression can be established from whole-cell fluorescence, after subtracting nonspecific fluorescence from a separate well containing nontransfected cells processed in parallel from the same experiment. Data were normalized by dividing by the average specific signal across each experiment, or by the wild-type value, as indicated in the figure legends.

Row | Molecule | Surface expression
1 | B1 | neutral
2 | B2 | neutral
3 | B3 | neutral
4 | B4 | neutral
5 | B5 | decrease
6 | B6 | neutral
7 | B7 | neutral
8 | B8 | decrease
9 | B9 | neutral
10 | B10 | decrease
11 | B11 | neutral
12 | B12 | neutral
13 | B13 | decrease
14 | B14 | increase
15 | B15 | decrease
16 | B16 | decrease
17 | B17 | decrease
18 | B18 | neutral
19 | B19 | decrease
20 | B20 | neutral
21 | B21 | decrease
22 | B22 | decrease
23 | B23 | decrease
24 | B24 | decrease
25 | B25 | neutral
26 | B26 | neutral
27 | B27 | neutral

Tested on: wild-type and variant SNAP-GIPR
Assay: Single-concentration GIP cAMP response by HTRF in AD293 cells
Format: cell-based, human
Settings: cAMP responses to 100 pM GIP in AD293 cells; summary classification (decrease/neutral/increase)
Procedure: All variants were tested in parallel on each occasion to control for transfection efficiency differences between experiments.

Row | Molecule | cAMP response
28 | B1 | decrease
29 | B2 | neutral
30 | B3 | neutral
31 | B4 | decrease
32 | B5 | decrease
33 | B6 | neutral
34 | B7 | neutral
35 | B8 | decrease
36 | B9 | neutral
37 | B10 | increase
38 | B11 | decrease
39 | B12 | neutral
40 | B13 | decrease
41 | B14 | neutral
42 | B15 | decrease
43 | B16 | decrease
44 | B17 | decrease
45 | B18 | neutral
46 | B19 | decrease
47 | B20 | neutral
48 | B21 | decrease
49 | B22 | decrease
50 | B23 | decrease
51 | B24 | decrease
52 | B25 | neutral
53 | B26 | increase
54 | B27 | increase
